Assay results: paper PMC13403136

Key:
AsCas12a [1] = target: T1, AsCas12a (UniProt U2UMQ6 1-1307); experiment: BLI
AsCas12a [2] = target: T1, AsCas12a; experiment: EMSA

B1: AsCas12a GFP ΨDNA w/ biotin (ssDNA)
DNA: AGCACCCAGTCCGCCCTGAGTAGATGTGAATCATCTTTAAT
AsCas12a [1]
  Kd: 24.5 nM

B2: AsCas12a ΨDNA + RNA target (EMSA, FAM ΨDNA) (DNA:RNA)
DNA: AGCACCCAGTCCGCCCTGAGTAGATGTGAATCATCTTTAAT
RNA: CUCAGGGCGGACUGGGUGCU
AsCas12a [2]
  binding result: binds

B3: AsCas12a ΨDNA + RNA target (EMSA) (DNA:RNA)
DNA: AGCACCCAGTCCGCCCTGAGTAGATGTGAATCATCTTTAAT
RNA: CUCAGGGCGGACUGGGUGCU
AsCas12a [2]
  binding result: binds
